US20240117061A1 (WUHAN YZY BIOPHARMA, published 2024)

Molecular target: T1, cynomolgus monkey BCMA on HEK293 cynoBCMA cells (cynomolgus monkey, UniProt A0A2K5UD97 1-183)
T1 construct: whole, on cells
Assay: flow cytometry on HEK293 cynoBCMA cells
Description: Procedures: The cells were resuspended in PBS, and the cell density was adjusted to 2×10^5 cells/well. Human-mouse chimeric monoclonal antibodies were added to a 96-well plate at 50 μL/well and serially 3-fold diluted from 3000 nM to the 9th concentration. The plate was incubated for 1 h at 4° C. 150 μL of precooled PBS containing 1% of FBS was added into the 96-well plate after the co-incubation with the primary antibody was finished. The mixtures were centrifuged at 300×g for 5 min and the supernatants were discarded. The above procedures were repeated once. The fluorescent secondary antibody PE anti-human IgG Fc (Biolegend, 409304) was added at 80 μL/well. The plate was incubated at 4° C. for 30 min. 150 μL of precooled PBS containing 1% of FBS was added into the 96-well plate after the co-incubation with the secondary antibody was finished. The 96-well plate was centrifuged at 300×g for 5 min and the supernatants were discarded. The above procedures were repeated once. The cells were resuspended in 100 μL of PBS containing 1% of FBS and detected on a flow cytometry (BD Accuri™ C6).

T1 sequence (A0A2K5UD97 entry or part of it): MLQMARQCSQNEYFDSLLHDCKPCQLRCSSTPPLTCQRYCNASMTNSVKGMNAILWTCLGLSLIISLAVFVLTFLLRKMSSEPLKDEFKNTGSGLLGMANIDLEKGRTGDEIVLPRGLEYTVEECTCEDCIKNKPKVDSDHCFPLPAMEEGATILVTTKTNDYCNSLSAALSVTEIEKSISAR

B1: human-mouse chimeric antibody c-mAb3 (antibody, human IgG1, V domains shown)
VH: EVQLQQSGPELVKPGASVKILCKASGYTITDYNMDWVKRSHGKSLEWIGNINPHNGGSIYNQKFKGKATLTVDKSSSTAFMELRSLTSEDTAVYYCARGDATLVLDYWGQGTSLTVSS
VL: DIVLTQSPASLAVSLGQRATISCRASKSVSTSGLSYMHWYQQKPGQPPKVLIYLASNLESGVPARFSGSGSGTDFTLNIHPVEEEDAATYYCQHSRELPPTFGAGTKLELK
notes: not shown: human IgG1 heavy chain constant region, GenBank No. AK303185.1; human kappa light chain constant region, GenBank No. MG815648.1
- EC50: 2.66 nM
